From patent publication US20230028476A1 (EVOTEC INTERNATIONAL, published 2023)
Where two headings read alike, the source gives them in different places.

What was measured:
Assay in all cases: cell-based or functional assay
[1] = molecular target: human IFN receptor on HEK-Blue IFN-α/β cells (human)
human CD40 [2] = molecular target: T1, human CD40 (human, UniProt P25942 21-277)
[3] = molecular target: human IFN receptor on HEK-Blue IFN-α/β cells (human); remark: listed apart in the source
human CD40 [4] = molecular target: T1, human CD40; remark: listed apart in the source

T1 sequence (P25942 21-277): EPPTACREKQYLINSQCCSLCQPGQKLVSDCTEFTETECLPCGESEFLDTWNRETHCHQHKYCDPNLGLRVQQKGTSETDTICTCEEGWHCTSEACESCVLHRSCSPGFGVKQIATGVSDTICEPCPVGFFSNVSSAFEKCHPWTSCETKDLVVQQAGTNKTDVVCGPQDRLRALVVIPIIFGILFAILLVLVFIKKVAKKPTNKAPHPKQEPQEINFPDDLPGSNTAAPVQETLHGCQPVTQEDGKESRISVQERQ

Binder | IFNβ EC50 (HEK-Blue IFN-α/β reporter cells) [1] [ng/mL] | CD40 EC50 (HEK-Blue CD40L reporter cells) (human CD40 [2]) [ng/mL] | IFNε EC50 (HEK-Blue IFN-α/β reporter cells) [1] [ng/mL] | IFNβ EC50 (HEK-Blue IFN-α/β reporter cells) [3] [ng/mL] | CD40 EC50 (HEK-Blue CD40L reporter cells) (human CD40 [4]) [ng/mL]
IFA1 (antibody, human IgG2, kappa) light: DIQMTQSPSSVSASVGDRVTITCRASQGIYSWLAWYQQKPGKAPNLLIYTASTLQSGVPSRFSGSGSGTDFTLTISSLQPEDFATYYCQQANIFPLTFGGGTKVEIKRTVAAPSVFIFPPSDEQLKSGTASVVCLLNNFYPREAKVQWKVDNALQSGNSQESVTEQDSKDSTYSLSSTLTLSKADYEKHKVYACEVTHQGLSSPVTKSFNRGECAEAAAKEAAAKAMSYNLLGFLQRSSNFQCQKLLWQLNGRLEYCLKDRMNFDIPEEIKQLQQFQKEDAALTIYEMLQNIFAIFRQDSSSTGWNETIVENLLANVYHQINHLKTVLEEKLEKEDFTRGKLMSSLHLKRYYGRILHYLKAKEYSHCAWTIVRVEILRNFYFINRLTGYLRN heavy: not shown | 1.64 | 74.1 |  |  | 
IFA10 (antibody, human IgG2, kappa) heavy: not shown light: DIQMTQSPSSVSASVGDRVTITCRASQGIYSWLAWYQQKPGKAPNLLIYTASTLQSGVPSRFSGSGSGTDFTLTISSLQPEDFATYYCQQANIFPLTFGGGTKVEIKRTVAAPSVFIFPPSDEQLKSGTASVVCLLNNFYPREAKVQWKVDNALQSGNSQESVTEQDSKDSTYSLSSTLTLSKADYEKHKVYACEVTHQGLSSPVTKSFNRGEC | 4.5 | 26.5 |  |  | 
IFA11 (antibody, human IgG2, kappa) heavy: not shown light: DIQMTQSPSSVSASVGDRVTITCRASQGIYSWLAWYQQKPGKAPNLLIYTASTLQSGVPSRFSGSGSGTDFTLTISSLQPEDFATYYCQQANIFPLTFGGGTKVEIKRTVAAPSVFIFPPSDEQLKSGTASVVCLLNNFYPREAKVQWKVDNALQSGNSQESVTEQDSKDSTYSLSSTLTLSKADYEKHKVYACEVTHQGLSSPVTKSFNRGEC | 1.78 | 42.8 |  |  | 
IFA12 (antibody, human IgG2, kappa) light: DIQMTQSPSSVSASVGDRVTITCRASQGIYSWLAWYQQKPGKAPNLLIYTASTLQSGVPSRFSGSGSGTDFTLTISSLQPEDFATYYCQQANIFPLTFGGGTKVEIKRTVAAPSVFIFPPSDEQLKSGTASVVCLLNNFYPREAKVQWKVDNALQSGNSQESVTEQDSKDSTYSLSSTLTLSKADYEKHKVYACEVTHQGLSSPVTKSFNRGECPAPAMSYNLLGFLQRSSNFQCQKLLWQLNGRLEYCLKDRMNFDIPEEIKQLQQFQKEDAALTIYEMLQNIFAIFRQDSSSTGWNETIVENLLANVYHQINHLKTVLEEKLEKEDFTRGKLMSSLHLKRYYGRILHYLKAKEYSHCAWTIVRVEILRNFYFINRLTGYLRN heavy: not shown | 3.64 | 105 |  |  | 
IFA13 (antibody, human IgG2, kappa) light: DIQMTQSPSSVSASVGDRVTITCRASQGIYSWLAWYQQKPGKAPNLLIYTASTLQSGVPSRFSGSGSGTDFTLTISSLQPEDFATYYCQQANIFPLTFGGGTKVEIKRTVAAPSVFIFPPSDEQLKSGTASVVCLLNNFYPREAKVQWKVDNALQSGNSQESVTEQDSKDSTYSLSSTLTLSKADYEKHKVYACEVTHQGLSSPVTKSFNRGECPAPAMSYNLLGFLQRSSNFQSQKLLWQLNGRLEYCLKDRMNFDIPEEIKQLQQFQKEDAALTIYEMLQNIFAIFRQDSSSTGWNETIVENLLANVYHQINHLKTVLEEKLEKEDFTRGKLMSSLHLKRYYGRILHYLKAKEYSHCAWTIVRVEILRNFYFINRLTGYLRN heavy: not shown | 0.7 | 192 |  |  | 
IFA19 (antibody, human IgG2, kappa) light: DIQMTQSPSSVSASVGDRVTITCRASQGIYSWLAWYQQKPGKAPNLLIYTASTLQSGVPSRFSGSGSGTDFTLTISSLQPEDFATYYCQQANIFPLTFGGGTKVEIKRTVAAPSVFIFPPSDEQLKSGTASVVCLLNNFYPREAKVQWKVDNALQSGNSQESVTEQDSKDSTYSLSSTLTLSKADYEKHKVYACEVTHQGLSSPVTKSFNRGECSGGTSGSTSGTGSMSYNLLGFLQRSSNFQSQKLLWQLNGRLEYCLKDRMNFDIPEEIKQLQQFQKEDAALTIYEMLQNIFAIFRQDSSSTGWNETIVENLLANVYHQINHLKTVLEEKLEKEDFTRGKLMSSLHLKRYYGRILHYLKAKEYSHCAWTIVRVEILRNFYFINRLTGYLRN heavy: not shown | 1.3 | 110 |  |  | 
IFA20 (antibody, human IgG2, kappa) light: DIQMTQSPSSVSASVGDRVTITCRASQGIYSWLAWYQQKPGKAPNLLIYTASTLQSGVPSRFSGSGSGTDFTLTISSLQPEDFATYYCQQANIFPLTFGGGTKVEIKRTVAAPSVFIFPPSDEQLKSGTASVVCLLNNFYPREAKVQWKVDNALQSGNSQESVTEQDSKDSTYSLSSTLTLSKADYEKHKVYACEVTHQGLSSPVTKSFNRGECAEAAAKEAAAKAAEAAAKEAAAKAMSYNLLGFLQRSSNFQSQKLLWQLNGRLEYCLKDRMNFDIPEEIKQLQQFQKEDAALTIYEMLQNIFAIFRQDSSSTGWNETIVENLLANVYHQINHLKTVLEEKLEKEDFTRGKLMSSLHLKRYYGRILHYLKAKEYSHCAWTIVRVEILRNFYFINRLTGYLRN heavy: not shown | 2.34 | 182 |  |  | 
IFA2 (antibody, human IgG2, kappa) light: DIQMTQSPSSVSASVGDRVTITCRASQGIYSWLAWYQQKPGKAPNLLIYTASTLQSGVPSRFSGSGSGTDFTLTISSLQPEDFATYYCQQANIFPLTFGGGTKVEIKRTVAAPSVFIFPPSDEQLKSGTASVVCLLNNFYPREAKVQWKVDNALQSGNSQESVTEQDSKDSTYSLSSTLTLSKADYEKHKVYACEVTHQGLSSPVTKSFNRGECAEAAAKEAAAKAMSYNLLGFLQRSSNFQSQKLLWQLNGRLEYCLKDRMNFDIPEEIKQLQQFQKEDAALTIYEMLQNIFAIFRQDSSSTGWNETIVENLLANVYHQINHLKTVLEEKLEKEDFTRGKLMSSLHLKRYYGRILHYLKAKEYSHCAWTIVRVEILRNFYFINRLTGYLRN heavy: not shown | 0.14 | 111 |  |  | 
IFA8 (antibody, human IgG2, kappa) heavy: not shown light: DIQMTQSPSSVSASVGDRVTITCRASQGIYSWLAWYQQKPGKAPNLLIYTASTLQSGVPSRFSGSGSGTDFTLTISSLQPEDFATYYCQQANIFPLTFGGGTKVEIKRTVAAPSVFIFPPSDEQLKSGTASVVCLLNNFYPREAKVQWKVDNALQSGNSQESVTEQDSKDSTYSLSSTLTLSKADYEKHKVYACEVTHQGLSSPVTKSFNRGEC | 2.9 | 39.7 |  |  | 
IFA49 (antibody, human IgG2, kappa) heavy: not shown light: DIQMTQSPSSVSASVGDRVTITCRASQGIYSWLAWYQQKPGKAPNLLIYTASTLQSGVPSRFSGSGSGTDFTLTISSLQPEDFATYYCQQANIFPLTFGGGTKVEIKRTVAAPSVFIFPPSDEQLKSGTASVVCLLNNFYPREAKVQWKVDNALQSGNSQESVTEQDSKDSTYSLSSTLTLSKADYEKHKVYACEVTHQGLSSPVTKSFNRGEC |  | 65.8 | 78.2 |  | 
IFA106 (antibody, human IgG2, kappa) heavy: QVQLVESGGGVVQPGKSLRLSCAASGFTFSSNGIHWVRQAPGKGLEWVAVIWSDGSNKFYADSVKGRFTISRDNSKNTLYLQMNSLRAEDTAVYYCARASGSGSYYNFFDYWGQGTLVTVSSASTKGPSVFPLAPCSRSTSESTAALGCLVKDYFPEPVTVSWNSGALTSGVHTFPAVLQSSGLYSLSSVVTVPSSNFGTQTYTCNVDHKPSNTKVDKTVERKCCVECPPCPAPPVAGPSVFLFPPKPKDTLMISRTPEVTCVVVDVSHEDPEVQFNWYVDGVEVHNAKTKPREEQFNSTFRVVSVLTVVHQDWLNGKEYKCKVSNKGLPAPIEKTISKTKGQPREPQVYTLPPSREEMTKNQVSLTCLVKGFYPSDIAVEWESNGQPENNYKTTPPMLDSDGSFFLYSKLTVDKSRWQQGNVFSCSVMHEALHNHYTQKSLSLSPGPAPASYNLLGFLQRSSNFQCQKLLWQLNGRLEYCLKDRMNFDIPEEIKQLQQFQKEDAALTIYEMLQNIFAIFRQDSSSTGWNETIVENLLANVYHQINHLKTVLEEKLEKEDFTRGKLMSSLHLKRYYGRILHYLKAKEYSHCAWTIVRVEILRNFYFINRLTGYLRN light: not shown |  |  |  | 10.3 | 190
IFA107 (antibody, human IgG2, kappa) heavy: QVQLVESGGGVVQPGKSLRLSCAASGFTFSSNGIHWVRQAPGKGLEWVAVIWSDGSNKFYADSVKGRFTISRDNSKNTLYLQMNSLRAEDTAVYYCARASGSGSYYNFFDYWGQGTLVTVSSASTKGPSVFPLAPCSRSTSESTAALGCLVKDYFPEPVTVSWNSGALTSGVHTFPAVLQSSGLYSLSSVVTVPSSNFGTQTYTCNVDHKPSNTKVDKTVERKCCVECPPCPAPPVAGPSVFLFPPKPKDTLMISRTPEVTCVVVDVSHEDPEVQFNWYVDGVEVHNAKTKPREEQFNSTFRVVSVLTVVHQDWLNGKEYKCKVSNKGLPAPIEKTISKTKGQPREPQVYTLPPSREEMTKNQVSLTCLVKGFYPSDIAVEWESNGQPENNYKTTPPMLDSDGSFFLYSKLTVDKSRWQQGNVFSCSVMHEALHNHYTQKSLSLSPGPAPASYNLLGFLQRSSNFQSQKLLWQLNGRLEYCLKDRMNFDIPEEIKQLQQFQKEDAALTIYEMLQNIFAIFRQDSSSTGWNETIVENLLANVYHQINHLKTVLEEKLEKEDFTRGKLMSSLHLKRYYGRILHYLKAKEYSHCAWTIVRVEILRNFYFINRLTGYLRN light: not shown |  |  |  | 2.03 | 142
IFA9 (antibody, human IgG2, kappa) heavy: not shown light: DIQMTQSPSSVSASVGDRVTITCRASQGIYSWLAWYQQKPGKAPNLLIYTASTLQSGVPSRFSGSGSGTDFTLTISSLQPEDFATYYCQQANIFPLTFGGGTKVEIKRTVAAPSVFIFPPSDEQLKSGTASVVCLLNNFYPREAKVQWKVDNALQSGNSQESVTEQDSKDSTYSLSSTLTLSKADYEKHKVYACEVTHQGLSSPVTKSFNRGEC | 0.7 | 42.6 |  |  | 
